{
  "source": "paper PMC11989107",
  "about": "“Biochemical and Structural Characterization of a Highly Glucose-Tolerant β-Glucosidase from the Termite Reticulitermes perilucifugus” (International Journal of Molecular Sciences, 2025)",
  "system": "O=[N+]([O-])c1ccc(O[C@@H]2O[C@H](CO)[C@@H](O)[C@H](O)[C@H]2O)cc1",
  "test": "purified protein",
  "details": "37 °C, 20 mM phosphate buffer pH 7.0, 1-20 mM pNPG",
  "data": [
    {"substance": "RpBgl8 (Reticulitermes perilucifugus)", "values": [
      {"measurement": "Km", "value": 5.4, "unit": "mM"},
      {"measurement": "kcat", "value": 0.17, "unit": "s⁻¹"}
    ]}
  ]
}
